The target in assay [1] is Sh2 N9 Y169aH NA ectodomain (stabilized tetramer) (influenza A virus A/Shanghai/02/2013 (H7N9)).
For assay [2] the target is unchanged. Description: crystal structure.

As usually defined, the stoichiometry N is the number of molecules, sites or subunits per partner or assembly.

Like-named read-outs stand apart in the source and are kept apart here.

Consider “Sh2 N9 Y169aH NA ectodomain (stabilized tetramer) (domain or fragment)”, for which the stoichiometry N in assay [1] and in assay [2] was 4 throughout.

Values taken from publication PMC6908751.
